The values below come from publication PMC8614738 (2021).

The assay has as its target oligomeric EF-Tu (^OligoEF-Tu), unfolded (UniProt P0CE47 1-394). Put plainly: ITC; 20 °C. In general terms: In ITC the heat of successive injections is recorded.

oligomeric EF-Tu (^OligoEF-Tu), unfolded, sequence (P0CE47 whole entry): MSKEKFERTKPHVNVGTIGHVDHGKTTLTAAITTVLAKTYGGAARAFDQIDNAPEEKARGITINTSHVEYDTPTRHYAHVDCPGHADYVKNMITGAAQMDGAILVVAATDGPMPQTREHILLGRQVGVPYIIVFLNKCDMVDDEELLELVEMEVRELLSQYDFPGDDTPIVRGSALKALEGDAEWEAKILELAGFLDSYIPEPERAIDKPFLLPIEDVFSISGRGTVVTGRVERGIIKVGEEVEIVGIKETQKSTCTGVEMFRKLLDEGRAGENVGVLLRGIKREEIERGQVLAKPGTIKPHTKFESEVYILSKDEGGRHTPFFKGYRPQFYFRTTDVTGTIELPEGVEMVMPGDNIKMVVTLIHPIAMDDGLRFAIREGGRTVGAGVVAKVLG

B1: trigger factor (TF) (natural protein)
chain: MQVSVETTQGLGRRVTITIAADSIETAVKSELVNVAKKVRIDGFRKGKVPMNIVAQRYGASVRQDVLGDLMSRNFIDAIIKEKINPAGAPTYVPGEYKLGEDFTYSVEFEVYPEVELQGLEAIEVEKPIVEVTDADVDGMLDTLRKQQATWKEKDGAVEAEDRVTIDFTGSVDGEEFEGGKASDFVLAMGQGRMIPGFEDGIKGHKAGEEFTIDVTFPEEYHAENLKGKAAKFAINLKKVEERELPELTAEFIKRFGVEDGSVEGLRAEVRKNMERELKSAIRNRVKSQAIEGLVKANDIDVPAALIDSEIDVLRRQAAQRFGGNEKQALELPRELFEEQAKRRVVVGLLLGEVIRTNELKADEERVKGLIEEMASAYEDPKEVIEFYSKNKELMDNMRNVALEEQAVEAVLAKAKVTEKETTFNELMNQQA
For the molecule B1, binding was characterised by a dissociation constant (Kd) of 1860 nM.

As a reminder, the Kd is the equilibrium constant for the complex coming apart.
